According to patent publication US20130274178A1 (PHILADELPHIA HEALTH AND EDUCATION CORPORATION D B A DREXEL …, published 2013):
Where no end group is shown, it is not given here. [ ]: non-standard residue; d: D form.

B1: UM41 (peptide)
peptide: NI[Azp‑triazole‑ferrocene]WS
notes: also called NIPWS
B2: UM17 (peptide)
peptide: NNI[Azp‑triazole‑ferrocene]W
notes: also called NNIPW
B3: UM10 (peptide)
peptide: [Azp‑triazole‑ferrocene]WSEAMM
notes: also called PWSEAMM
B4: HNG-156 (peptide)
peptide: RINNIPWSEAMM
modifications: proline 6 is a 1,2,3-triazole-modified proline (from cis-4-azidoproline, Azp) 4-substituted with ferrocene
B5: UM24 (peptide)
peptide: XNNIPWS
modifications: not fully specified; residue 1 is citrulline (Cit); proline 5 is a 1,2,3-triazole-modified proline (Azp) 4-substituted with ferrocene
notes: Rink amide resin; also called CitNNIPWS
B6: UM31 (peptide)
peptide: NNI[Azp‑triazole‑ferrocene]WS-NH2
notes: Rink amide resin; also called NNIPWS
B7: UM33 (peptide)
peptide: ENI[Azp‑triazole‑ferrocene]WS
notes: also called ENIPWS
B8: UM32 (peptide)
peptide: RNI[Azp‑triazole‑ferrocene]WS
notes: also called RNIPWS
B9: UM35 (peptide)
peptide: INI[Azp‑triazole‑ferrocene]WS-NH2
notes: Rink amide resin; also called INIPWS
B10: UM11 (peptide)
peptide: RINNI[Azp‑triazole‑ferrocene]WS-NH2
notes: Rink amide resin
B11: UM13 (peptide)
peptide: EINNI[Azp‑triazole‑ferrocene]WS-NH2
notes: Rink amide resin
B12: UM21 (peptide)
peptide: INNI[Azp‑triazole‑ferrocene]WS-NH2
notes: Rink amide resin; also called INNIPWS
B13: UM23 (peptide)
peptide: ENNI[Azp‑triazole‑ferrocene]WS-NH2
notes: Rink amide resin; also called ENNIPWS
B14: UM28 (peptide)
peptide: FNNI[Azp‑triazole‑ferrocene]WS-NH2
notes: Rink amide resin; also called FNNIPWS
B15: UM27 (peptide)
peptide: KNNI[Azp‑triazole‑ferrocene]WS
notes: also called KNNIPWS
B16: UM22 (peptide)
peptide: RNNI[Azp‑triazole‑ferrocene]WS
notes: also called RNNIPWS
B17: UM15 (peptide)
peptide: INNI[Azp‑triazole‑ferrocene]W-NH2
notes: Rink amide resin; also called INNIPW
B18: UM16 (peptide)
peptide: RINNI[Azp‑triazole‑ferrocene]
notes: also called RINNIP
B19: UM12 (peptide)
peptide: RINNI[Azp‑triazole‑ferrocene]W
notes: also called RINNIPW

Key:
HIV-1YU2 gp120 [1] = target: T1, HIV-1YU2 gp120 (HIV-1 strain YU-2, UniProt P35961 32-498, limits assumed); test: ITC; peptide titrated into gp120, 25 °C, PBS pH 7.4; ITC, 25° C. in PBS, pH 7.4
T1 construct: domain: gp120
Experimental: Data was obtained as 25° C. in PBS, pH 7.4.
The solutions contained within the calorimetric cells and injector syringes were prepared in PBS, pH 7.4 and thoroughly degassed to avoid bubble formation in the calorimetric cell. The heat evolved upon each injection of the peptide solution was obtained from the integral of the calorimetric signal. The heat associated with binding of a ligand to the protein in the cell was obtained by subtracting the heat of dilution from the heat of reaction.

HIV-1YU2 gp120 [2] = target: T1, HIV-1YU2 gp120; test: ITC; peptide titrated into gp120, 25 °C, PBS pH 7.4
Experimental: The solutions contained within the calorimetric cells and injector syringes were prepared in PBS, pH 7.4 and thoroughly degassed to avoid bubble formation in the calorimetric cell. The heat evolved upon each injection of the peptide solution was obtained from the integral of the calorimetric signal. The heat associated with binding of a ligand to the protein in the cell was obtained by subtracting the heat of dilution from the heat of reaction. Heats of dilution due to mismatch between the syringe and cell solutions were negligible in all experiments.

HIV-1YU2 gp120 [3] = target: T1, HIV-1YU2 gp120; test: competition ELISA: IgG b12 with UM17 on immobilized YU-2 gp120; blocked ligand b12
[4] = target: T2, soluble four domain CD4 (sCD4) (UniProt P01730 26-394, limits assumed); test: SPR, sCD4 surface
T2 construct: domain: soluble four domain CD4; also called soluble CD4

[5] = target: HIV-1BaL envelope glycoprotein on pseudotyped virus (HIV-1 strain BaL); test: cell-based or functional assay
HIV-1YU2 gp120 [6] = target: T1, HIV-1YU2 gp120; test: ELISA and SPR competition; gp120 binding to sCD4
HIV-1YU2 gp120 [7] = target: T1, HIV-1YU2 gp120; test: competition ELISA: sCD4 (0.1 µg/ml) with peptide on plate-coated YU-2 gp120; blocked ligand sCD4 (diamonds per the legend)
HIV-1YU2 gp120 [8] = target: T1, HIV-1YU2 gp120; test: competition ELISA: mAb 17b (0.1 µg/ml) with peptide on plate-coated YU-2 gp120; blocked ligand mAb 17b (the UM10 curve that is not diamonds)
[9] = target: T2, soluble four domain CD4 (sCD4); test: SPR, immobilized sCD4
HIV-1 92UG037-08 gp120 = target: T3, HIV-1 92UG037-08 gp120 (HIV-1 strain 92UG037-08); test: SPR direct binding; gp120 immobilized, peptide as analyte
T3 construct: domain: gp120; also called 92UG037-08 (A); 92Ugo37-08 gp120
Experimental: (§1) All surface plasmon resonance experiments (SPR) were performed on a BIA3000 optical biosensor (Biocore, Inc., Uppsala, Sweden). […] The indicated analytes were passed over the surfaces at a flow rate of 50 μL/minute, with 2.5 minute association phase and 2.5 minute dissociation phase.
Data analysis was performed using BIAEvaluation® 4.0 software (Biacore Inc., NJ). The responses of a buffer injection and responses from the control surface to which the mAb 2B6R was immobilized, were subtracted to account for nonspecific binding. Experimental data were fitted to a simple 1:1 Langmuir binding model with a parameter included for mass transport. The average kinetic parameters (association [kₐ] and dissociation [kd] rates) generated from a minimum of four datasets were used to define equilibrium association (KA) and dissociation constants (KD).

[10] = target: HIV-1 gp120 on envelope-pseudotyped luciferase-reporter virus (strain not stated, Example 8) (HIV-1, strain ); test: cell-based or functional assay
HIV-1YU2 gp120 [11] = target: T1, HIV-1YU2 gp120; test: SPR competition; gp120 binding to CD4
Experimental: as §1

HIV-1YU2 gp120 [12] = target: T1, HIV-1YU2 gp120; test: SPR direct binding, YU2 gp120 (Example 8); Example 8 determination
HIV-1YU2 gp120 [13] = target: T1, HIV-1YU2 gp120; test: SPR competition; gp120 binding to mAb 17b; Example 8, Table 9
HIV-1YU2 gp120 [14] = target: T1, HIV-1YU2 gp120; test: SPR direct binding; YU-2 gp120 immobilized (~3500 RU), peptide as analyte
Experimental: Surface plasmon resonance (SPR) interaction analyses were performed on a Biacore® 3000 optical biosensor (GE). All experiments were carried out at 25° C. using standard PBS, pH 7.4, with 0.005% Surfactant P20.
Regeneration of the surface was achieved by a one 5-second pulse of 10 mM glycine, pH 1.5.

HIV-1YU2 gp120 [15] = target: T1, HIV-1YU2 gp120; test: SPR direct binding; YU-2 gp120 immobilized (~3500 RU), peptide as analyte; Example 9; SPR direct binding, peptide over immobilized gp120
HIV-1YU2 gp120 [16] = target: T1, HIV-1YU2 gp120; test: SPR competition; gp120 binding to mAb 17b
Experimental: as §1

Binder	IC50 (µM), pseudotyped HIV-1BaL infection of HOS.CD4.CCR5 cells [5]	IC50 (µM), pseudotype virus cell infection assay [10]	IC50 (HIV-1YU2 gp120 [11])	koff (HIV-1YU2 gp120 [14])	kon (HIV-1YU2 gp120 [14])	IC50 (HIV-1YU2 gp120 [16])	further results
B1	–	–	–	–	–	–	-TΔS (HIV-1YU2 gp120 [1]): -1.6 kcal/mol; ΔH (HIV-1YU2 gp120 [1]): -6.1 kcal/mol
B2	–	–	–	–	–	–	-TΔS (HIV-1YU2 gp120 [2]): 3.3 kcal/mol; ΔH (HIV-1YU2 gp120 [2]): -13.2 kcal/mol; IC50 (read off the curve) (HIV-1YU2 gp120 [3]): ~3 µM
B3	35 µM	–	–	–	–	–	binding result [4]: no binding; IC50 (HIV-1YU2 gp120 [6]): > 10 µM; IC50 (read off the curve) (HIV-1YU2 gp120 [7]): ~2 µM; IC50 (read off the curve) (HIV-1YU2 gp120 [8]): ~0.2 µM
B4	–	–	–	–	–	–	binding result [9]: no binding (tested: 10 to 600 nM); Kd (HIV-1 92UG037-08 gp120): 0.0163 µM
B5	–	4.9 µM	0.081 µM	–	–	–	-TΔS (HIV-1YU2 gp120 [2]): 6.3 kcal/mol; ΔH (HIV-1YU2 gp120 [2]): -16.7 kcal/mol; Kd (HIV-1YU2 gp120 [12]): 0.021 µM
B6	36 µM	10 µM	5 µM	–	–	–	-TΔS (HIV-1YU2 gp120 [2]): 4.1 kcal/mol; ΔH (HIV-1YU2 gp120 [2]): -13.8 kcal/mol; IC50 (HIV-1YU2 gp120 [13]): 16 µM
B7	–	–	–	0.0018 s⁻¹	1100 M⁻¹ s⁻¹	–	–
B8	–	–	–	0.0031 s⁻¹	3300 M⁻¹ s⁻¹	–	–
B9	17 µM	17 µM	–	–	–	–	Kd (HIV-1YU2 gp120 [15]): > 10 µM
B10	4 µM	10.7 µM	–	–	–	0.168 µM	–
B11	1.2 µM	3.2 µM	0.079 µM	–	–	–	–
B12	7.4 µM	7.4 µM	0.086 µM	–	–	–	–
B13	5.8 µM	6.6 µM	0.088 µM	0.0034 s⁻¹	130000 M⁻¹ s⁻¹	0.165 µM	–
B14	13 µM	11 µM	0.105 µM	0.0043 s⁻¹	380000 M⁻¹ s⁻¹	0.174 µM	–
B15	23 µM	–	0.128 µM	0.0088 s⁻¹	590000 M⁻¹ s⁻¹	0.197 µM	–
B16	11 µM	–	0.123 µM	0.0068 s⁻¹	510000 M⁻¹ s⁻¹	0.181 µM	–
B17	6.9 µM	7.2 µM	–	–	–	–	-TΔS (HIV-1YU2 gp120 [2]): 6.6 kcal/mol; ΔH (HIV-1YU2 gp120 [2]): -16.6 kcal/mol
B18	–	–	–	–	–	–	Kd (HIV-1YU2 gp120 [14]): > 10 µM
B19	6.8 µM	12.5 µM	0.124 µM	–	–	0.218 µM	binding result [4]: no binding; -TΔS (HIV-1YU2 gp120 [2]): 9.9 kcal/mol; ΔH (HIV-1YU2 gp120 [2]): -19.7 kcal/mol
